Earlier results, collected in patent publication US8901167B2, “Product and process for inhibition of biofilm development” (National Jewish Health, priority 2004, dated 2014).

Columns and labels:
[1] = tested on: extracellular DNA present in the CF airway; conditions: inhalation, CF patients; Fuchs et al. 1994
P. aeruginosa biofilm = conditions: literature refs 39, 43

| Molecule | Clinical effect on sputum viscosity and forced expiratory volume (FEV) [1] | Effect on P. aeruginosa biofilm formation (P. aeruginosa biofilm) |
| --- | --- | --- |
| rhDNase: purified rhDNase (Pulmozyme; Genentech), digests extracellular DNA present in the CF airway (protein, UniProt P24855 23-282, looked up) Deoxyribonuclease-1: LKIAAFNIQTFGETKMSNATLVSYIVQILSRYDIALVQEVRDSHLTAVGKLLDNLNQDAPDTYHYVVSEPLGRNSYKERYLFVYRPDQVSAVDSYYYDDGCEPCGNDTFNREPAIVRFFSRFTEVREFAIVPLHAAPGDAVAEIDALYDVYLDVQEKWGLEDVMLMGDFNAGCSYVRPSQWSSIRLWTSPTFQWLIPDSADTTATPTHCAYDRIVVAGMLLRGAVVPDSALPFNFQAAYGLSDQLAQAISDHYPVEVMLK | clinically effective for diminishing sputum viscosity and stabilizing the forced expiratory volume | – |
| lactoferrin: a major component of the secondary neutrophil granules (protein, UniProt P02788 20-710, looked up) Lactotransferrin: GRRRSVQWCAVSQPEATKCFQWQRNMRKVRGPPVSCIKRDSPIQCIQAIAENRADAVTLDGGFIYEAGLAPYKLRPVAAEVYGTERQPRTHYYAVAVVKKGGSFQLNELQGLKSCHTGLRRTAGWNVPIGTLRPFLNWTGPPEPIEAAVARFFSASCVPGADKGQFPNLCRLCAGTGENKCAFSSQEPYFSYSGAFKCLRDGAGDVAFIRESTVFEDLSDEAERDEYELLCPDNTRKPVDKFKDCHLARVPSHAVVARSVNGKEDAIWNLLRQAQEKFGKDKSPKFQLFGSPSGQKDLLFKDSAIGFSRVPPRIDSGLYLGSGYFTAIQNLRKSEEEVAARRARVVWCAVGEQELRKCNQWSGLSEGSVTCSSASTTEDCIALVLKGEADAMSLDGGYVYTAGKCGLVPVLAENYKSQQSSDPDPNCVDRPVEGYLAVAVVRRSDTSLTWNSVKGKKSCHTAVDRTAGWNIPMGLLFNQTGSCKFDEYFSQSCAPGSDPRSNLCALCIGDEQGENKCVPNSNERYYGYTGAFRCLAENAGDVAFVKDVTVLQNTDGNNNEAWAKDLKLADFALLCLDGKRKPVTEARSCHLAMAPNHAVVSRMDKVERLKQVLLHQQAKFGRNGSDCPDKFCLFQSETKNLLFNDNTECLARLHGKTTYEKYLGPQYVAGITNLKKCSTSPLLEACEFLRK | – | prevent P. aeruginosa biofilm development |
